B1: 2-A6 (antibody, V domains shown)
VH: QVTLRESGPALVKPTQTLTLTCTFSGFSLNTRGMSVSWIRQPPGKALEWLALIDWEDDKFYRTSLMTRLTISKDIFKNQVVLTMTNVDPVDTGTYYCARTYSVGVKYFGMDVWGQGTTVTVSS
VL: SSELTQDPAVSVALGQTVRITCQGDSLRNYYASWYRQEPGQAPILLIYGGNYRPSGIPDRFSGSSSGNTASLTITGAQAEDEADYYCNSRDSSGNHVVFGGGTKLTVL
B2: 22-F7 (antibody, V domains shown)
VH: QVQLVESGGGVVQPGRSLRLSCAASGFSFTNYGMHWVRQAPGKGLEWVAVISYDGSIKYYEDSLKGRFTVSRDNSKKTLYLQMNSLRAEDTAVYYCTRERGTGIDYWGLGTLVTVSS
VL: QSALTQPASVSGYPGQSITLSCTGTKSDIGAYNYVSWYQQHPGKAPKLMVYDVSNRPSGLSNRFSGSKSDNTASLTISGLQAEDEAHYYCSSYTTSGTVVFGGGTKVTVL
B3: 22-E7 (antibody, V domains shown)
VH: QVQLVESGGGVVQPGTSLRLSCAASGFTFNNYPMFWVRQAPGKGLEWLALISYDGNHKVYADSVKGRFTISRDNAKNTLYLQMHSLRAEDTALYYCASDLSGAEDSWGQGTLVTVSS
VL: QSALTQPASVSGSPGQSITISCTGTSSDVGGYNYVSWYQQHPGKAPKLLIYEVSNRPSGVSNRFSGSKSGNTASLTISGLQAEDEADYYCSSYTSSSTWVFGGGTKLTVL

Each binder was assayed against SARS-CoV-2 Spike trimer (recombinant, wild type) (SARS-CoV-2), P0DTC2 (assay: ELISA on plate-adsorbed recombinant Spike). Settings: remark: other sources report otherwise.

Question: B1 was tested. Which EC50 (read off the curve) did it give?
Answer: 0.007 µg/mL

Question: For B2, which EC50 (read off the curve) is on record?
Answer: 0.01 µg/mL

Question: With B3 as the binder, how does the EC50 (read off the curve) read?
Answer: 0.02 µg/mL

Source: patent US20230250158A1
